Assay: soluble on expression in E. coli; label from the status in PepcDB or PDB records

**Q.** With “MSLAPPEGNPAAGKVAAGLCRTCHGLNGFARIPIAPHIGGEHPSYIRHQLEAFRSGTRQHEIMSVVAASLSDAQIADLSAWFAMQKIHVALKPGVDPHAAPEACALCHGADGVAVLEDAPNLAGENSVYLETQLKAFRTGKRTHEIMSPIAAELTDAEIRAAADWYAAVQLEIDEGHHHHHH” as the sequence, how does the “soluble on expression in E. coli” value read?
**A.** not soluble

**Q.** Which “soluble on expression in E. coli” value does the source give for “MSLAPIAQAQHELSISRLIDAPPAKVFRAWTEPQWLMQWWGPHGMTTPECEMQLWAGGLFRTLMRAPDGCEYPNQGVFLEIAAPRRLVFTDAFGPGWVPSDKAFMTAVISFDEEQGKTRYTARAWHWNATDCRAHEEMGFHQGWGESLDRLVEVVTQRMPDLEHHHHHH” here?
**A.** soluble

**Q.** For “MGSDKIHHHHHHMITIKKGLDLPITGEPSREISEHRPAHVALIGYDYVGMKPTMNVKEGDIVAKGQSVFEDKKRAGVIYTAPAAGKVVAIKRGERRVFESLVIAVDPNGAEVEFQRYDSQQLADLDSEVVETQLLASGEWTAFRTRPYSRAPEIGARPHAIFVTAMDTNPLAFDPMLLINEQLQAFNDGLAVLSTLSPKTFVCHHGNSQLTPVAKTAANNVTEYHSFAGKHPAGLAGTHIHFLHPIMRGTSVWTIGYQDVIAIGKLFTSGRLYTRRLLSLAGPAVSNPHVIATERGADIAALTKGNLTAGENRVISGSVLSGRQVFANIAYLGRFDNQVSVLAEGRERPAFHFFTPGANRFSKLPIYISQFFGGKKYNFTTTSNGSPRAMVPIGVYEEVMPQDYLPTQLLRALIVEDIVTAVDLGVLELDEEDLALCTFVSPGKYEFGDILRDNLTRIELEG”, which “soluble on expression in E. coli” value is on record?
**A.** not soluble

**Q.** For “SSFLGGLFGPACEIDVILNDAESRKTAELKTEEGKLEKHYLFYDGESVSGKVNINVKQTSKRLEHQGIRIEFVGQIELFSDKSNTHEFVNLVKELALPGELTQNRSYDFEFMQVEKPYESYVGANVRLRYFLKVTIVRRLSDLVKEYDLIVHQLATYPDVNNSIKMEVGIEDCLHIEFEYNKSKYHLKDVIVGKIYFLLVRIKIQHMELQLIKKEMTGIGPSTTTETETVAKYEIMEGAPVKGESIPIRLFLAGYDLTPTMRDVNKKFSVRYFLNLVLVDEEDRRYFKQQEIVLWRKAPEKMRKRNFHQRYESPEPRPSLSAEQPEM”, which “soluble on expression in E. coli” value is on record?
**A.** soluble

**Q.** For “MGSDKIHHHHHHMRYFARIAELGSFTRAASELGVAQPALSLHVRALEDQLGLQLLNRTSRGVVVTEAGQTLLVHAQAILRAVEQAEAATREQAKYPSGDVSLGILSSLSPILSIPVLEACDRRFPKIRLTISEGDSQTLRTATDIHAHDLAVNLLDVAKPTAVPLFDERLYAVGPLNAFTQRQNDLPLREALSLPLIMPSQRHGIRILLEKQALILGQKINIVRVIEGVASTKAAIRAGLGLTILGRGAVYADHQAGQLSVIPLRAPELFRRLVLDMPVNHPPTKAVLEVRQILMEVIKRLGGEGHWSCLA”, which “soluble on expression in E. coli” value is on record?
**A.** not soluble

**Q.** Which “soluble on expression in E. coli” value does the source give for “MIFENRLALSAMAGVNNAEFCRKQKASLVILGGFNADRRALEAAEKAVKRGRKEFLFGIDGIEGEIKKLGRRKFAVNVRSSSLEGYLNVAELVAEFEGIIEINAHCRQPEFVEIGCGEWLLFNHERLVEIVSKTSRIAPTFVKIRGGHKLDYEKIARKLFDAGCLAIHVDAMIPGGGCDFSLIERISRIGNVIGNNSFVDIESGERIIMAGAKMASAARAVLRDENFFEKMLRSPLLSQPVELSCGRFRLEHHHHHH” here?
**A.** soluble

**Q.** With “MKKVLIAALIAGFSLSATAAQTIRFATEASYPPFESMDANNKIVGFDVDLANALCKEIDASCTFTNQAFDSLIPSLKFRRFDAVMAGMDITPEREKQVLFTTPYYDNSALFVGQQGKYTSVDQLKGKKVGVQNGTTHQKFIMDKHPEITTVPYDSYQNAKLDLQNGRIDAVFGDTAVVTEWLKANPKLAPVGDKVTDKDYFGTGLGIAVRQGNTELQQKFNTALEKVKKDGTYETIYNKWFQK” as the sequence, how does the “soluble on expression in E. coli” value read?
**A.** not soluble

**Q.** For “SAAATEHNRPSSGDRNLERRCSPNLSREVLYEIFRSLHTLVGQLDLRDDVVKITIDWNKLQSLSAFQPALLFSALEQHILYLQPFLAKLQSPIKEENTTAVEEIGRTEMGNKNEVNDKFSIGDLQEEEKHKESDLRDVKKTQIHFDPEVVQIKAGKAEIDRRISAFIERKQAEINENNVREFCNVIDCNQENSCARTDAIFTPYPGFKSHVKVSRVVYTYGPQTRPEGIPGSGHKPNSMLRDCGNQAVEERLQNIEAHLRLQTGGPVPRDIYQRIKKLEDKILELEGISPEYFQSVSFSGKRRKVQPPQQNYSLAELDEKISALKQALLRKSREAESMATHHLP”, which “soluble on expression in E. coli” value is on record?
**A.** not soluble

**Q.** Which “soluble on expression in E. coli” value does the source give for “GMYEEWKIVKREAPILGNDQLIENIWKMKREDSPYDIISLHKVNLIGGGNDAVLILPGTWSSGEQLVTISWNGVHYTIPDYRKSIVLYLARNGFNVYTIDYRTHYVPPFLKDRQLSFTANWGWSTWISDIKEVVSFIKRDSGQERIYLAGESFGGIAALNYSSLYWKNDIKGLILLDGGPTKHGIRPKFYTPEVNSIEEMEAKGIYVIPSRGGPNNPIWSYALANPDMPSPDPKYKSISDFLMDSLYVTGSANPYDYPYSKKEDMFPILASFDPYWPYRLSLERDLKFDYEGILVPTIAFVSERFGIQIFDSKILPSNSEIILLKGYGHLDVYTGENSEKDVNSVVLKWLSQQR” here?
**A.** soluble

**Q.** For “MSKTITWTAALLGSMALAGCSGPKTLYQWEGYQAQVHEYFKGESKEAQAQALEADLEKIRAKNGAVPPGYHAQLGLLYSSIGKDDQMVREFETEKALFPESATYMDFLLNNARGGAR”, which “soluble on expression in E. coli” value is on record?
**A.** not soluble

**Q.** Which “soluble on expression in E. coli” value does the source give for “MKVLRHGLFKDRRVFDENYIPPELRVRRGEAEALARIYLNRLLSGAGLSDVNMIYGSIGRVGIGKTTLAKFTVKRVSEAAAKEGLTVKQAYVNAFNAPNLYTILSLIVRQTGYPIQVRGAPALDILKALVDNLYVENHYLLVILDEFQSMLSSPRIAAEDLYTLLRVHEEIPSRDGVNRIGFLLVASDVRALSYMREKIPQVESQIGFKLHLPAYKSRELYTILEQRAELGLRDTVWEPRHLELISDVYGEDKGGDGSARRAIVALKMACEMAEAMGRDSLSEDLVRKAVSENEAASIQTHELEALSIHELIILRLIAEATLGGMEWINAGLLRQRYEDASLTMYNVKPRGYTQYHIYLKHLTSLGLVDAKPSGRGMRGRTTLFRLAPHLPADRLIEVVDNIIQAKMASGYE” here?
**A.** soluble

**Q.** With “MAGMHFLVGISTENYVILAADKATFAYGAILADSENDKEYRLGKKLTMMCIGEEGDVAQFGDWTKRNLQLYSVRNGYEVSPSCAHHFVRRSIAEGLRSQDHYTVDVLIGGYDDKEDKAFLGSVDYLANGLGQQPYLFRGFCGRFCYAIMDREYKKDMTEAEGLALMNKCIGEAKRRFVANIPGYKVVIIDKKGYRKLDDVLF” as the sequence, how does the “soluble on expression in E. coli” value read?
**A.** soluble

**Q.** For “MGDSEIYVSLDIGTASVKVIIAEMADDRLNIIGVGNVESSGIKKGIIIDIDKTVESIKKAIEQAERMVGVEISQVIVGVVSSQVHLEACRGIVAVGSENREITDEDVWNVMDAAQVVPLSPEREIINTIPDQFVVDGLTGITDPRGMIGVRLEMEGTLITGSKTILHNTLRCVERAGLEISDIALQPLAEASISLSEDDKEFGTALVNIGAGTTTVSVFEQGRLTYTGVIPVGGDNITKDLSLGLNTSTANADRVKLEHGYAFYDDASPDEVFAIDVIGSDQKQHFTQVEVADIIEARMEEIFQLVVEELNRVGKTHLPGGYVLTGGSMAIPGAIDLAGKTLAAHVRLAIPDYIGVREPSFTTAVGLIKYAYQMAELEGRDVSSTASEPRYDDEAPKQPKQKPKKSDDEKVSTKMKNFFGAFFE”, which “soluble on expression in E. coli” value is on record?
**A.** not soluble

**Q.** Which “soluble on expression in E. coli” value does the source give for “MGSDKIHHHHHHMDSLLMNRRKFLYQFKNVRWAKGRRETYLCYVVKRRDSATSFSLDFGYLRNKNGCHVELLFLRYISDWDLDPGRCYRVTWFTSWSPCYDCARHVADFLRGNPNLSLRIFTARLYFCEDRKAEPEGLRRLHRAGVQIAIMTFKDYFYCWNTFVENHERTFKAWEGLHENSVRLSRQLRRILLPLYEVDDLRDAFRTLGL” here?
**A.** not soluble

**Q.** Which “soluble on expression in E. coli” value does the source give for “MANKLRNYTINFGPQHPAAHGVLRMILELDGEQIVRADPHIGLLHRGTEKLAETKTYLQALPYMDRLDYVSMMVNEQAYCLAVEKLVGIDVPIRAQYIRVMFAEVTRILNHLMGIGSHAFDIGAMTAILYAFRDREELMDLYEAVSGARMHAAYFRPGGVYRDLPDFMPKYEGSKFRNAKVLKQLNESREGTMLDFIDAFCERFPKNIDTLETLLTDNRIWKQRTVGIGVVSPERAMQKGFTGVMLRGSGVEWDVRKTQPYEVYDKMDFDIPVGVNGDCYDRYLCRMEEMRQSVRIIKQCSEWLRVNPGPVITTNHKFAPPKRTEMKTGMEDLIHHFKLFTEGMHVPEGETYTAVEHPKGEFGVYIISDGANKPYRLKIRAPGFAHLQGMDEMAKGHMLADVVAIIGTQDIVFGEVDR” here?
**A.** not soluble

**Q.** Which “soluble on expression in E. coli” value does the source give for “MSLKITNEMQTKAETKIHRTTKVGDPSFQQMVQSQTKQLNQQQFHQLVQQISKQGSKLAQYRSFRELVKFKRMVKSFLDKAVVQGYKLEKSHSFGLQGSRHLSIVKAVDEKLIQLAEDIMDEEKKTVDILGLIGEIKGLLINIYTEGHHHHHH” here?
**A.** soluble

**Q.** Which “soluble on expression in E. coli” value does the source give for “MKEVYRYAYHYAGRPVGEGRLEVERRRGGVRASLQAEFLPPLPPGRQRWQTELDAEGFSLRFQERVEGKEVRVFAVERLEEEGVVLVSQGKESLAYPYLAPYHDPLSLFLALPGLALEPGEVVRFPMPGGRVYVERLPDVEVEGRARRQYRLRPGLSLVQVEEGRLVRVAQQVGRHVFEAVLLEAEGP” here?
**A.** soluble

**Q.** With “MDSKLIGKICKSIRYRDYETAIFLAACLLPCKPEYRMLMSIVLYLNGEYTRALFHLHKLNTCTSKYYESLCYKKKKDYKKAIKSLESILEGKVERDPDVDARIQEMFVDPGDEEFFESLLGDLCTLSGYREEGIGHYVRSFGKSFLFSPVENLLLENKVPQKRDKENVRQTGRRGIEEEYVSDSIEFHESLSPSLVKKYMEHVPGIGSYFISNAARRYFNLGMNDKSKACFELVRRKDPMFL” as the sequence, how does the “soluble on expression in E. coli” value read?
**A.** soluble

**Q.** Which “soluble on expression in E. coli” value does the source give for “MGSDKIHHHHHHMGACQPNNSQLYIGIDGGGSKCRATIYTAEHQKLGTGVAGRANPLHGLEQTFLSITESTQLAIADAGLAPSTSQQLIAGIGLAGVNVSHYYQHIVNWQHPFKAMYLTTDLHTACIGAHNGEDGAVIITGTGSCGYAHVGDNTICLGGHGFALGDKGSGAWLGLKAVEHVLLALDGFACATSLTERLLSHFNALDAMGIVEQLAGQSSSAYAKLARSVLACAQEGDAVAISIVKEGAEYICKLARKLFAVNPSRFSMIGGLVEPLYPWLDEDVAKRISPALTPPEFGAFLFARKQFNTKA” here?
**A.** not soluble

**Q.** For “MGSDKIHHHHHHMHMAAKRGRTAQRLELGLQLRQLRENCDGGDRGVGLTRKQAVQGLRISEASLQRIETGSLNFRFVGDLRKLLTKYGVTDEDVVDSLISLNRESNQQDWLTQYRGLMPSGMPGFVGLEPEAHAMKAYHPTLVYGLLQTERYARAVHEVQKPIEEYTTEFIRSSVELRMKRQEVLTRESPVKLHVILGEAALRYPIGGAEVMREQCARIEELSGWDHITVQVLPFRPSYRSINDFAILDFGNNLPPRVQADSAWGSVSTSDKPREVDRFSRRFDTMTASALPPEDTPEFLHRLEREL”, which “soluble on expression in E. coli” value is on record?
**A.** not soluble

**Q.** With “MLHTTDFSDIFSSDYSSKVSFKKGDIIHSFKDYEKKPPQIGVILEGTAVLEGPTNEGRWMINALISENAIFGMESLLETKTAPELTEYRVRALENGRALFIDREFFLNYLYANPHFFHLVLDDVIVRYLFTAKNYKNINQPPIIKVTRIFVEIIELLNLHQTEGPIVLPSYITQTFLADYCRSSRARITESLEELLVNGLLASKKPITISSHEKLLDQIDSFQTGNGLLTK” as the sequence, how does the “soluble on expression in E. coli” value read?
**A.** not soluble

**Q.** For “RQEQTETLAEERAETVANLEELNALILQRMRTGILVVDSRQAILLANQAALGLLRQDDVQGASLGRHSPMLMHCMKQWRLNPSLRPPTLKVVPDGPTVQPSFISLNREDDQHVLIFLEDISQIAQQAQQMKLAGLGRLTAGIAHEIRNPLGAISHAAQLLQESEELDAPDRRLTQIIQDQSKRMNLVIENVLQLSRRRQAEPQQLDLKEWLQRFVDEYPGRLRNDSQLHLQLGAGDIQTRMDPHQLNQVLSNLVQNGLRYSAQAHGRGQVWLSLARDPESDLPVLEVIDDGPGVPADKLNNLFEPFFTTESKGTGLGLYLSRELCESNQARIDYRNREEGGGCFRITFA”, which “soluble on expression in E. coli” value is on record?
**A.** not soluble

From the DeepSol protein solubility set
